Source: publication PMC12241602

Biological target: MadB, class I lantibiotic dehydratase of maddinglicin (His6-MadB) (Clostridium sp. Maddingley)
Experiment: ITC; leader variant (200 µM, syringe, 20 injections of 2 µL) titrated into MadB (20 µM of the dimer, cell); 25 °C; 50 mM HEPES, 500 mM NaCl, pH 7.5; N counts leader peptide per MadB dimer; at least triplicate, error S.D.

Row | Substance | stoichiometry N
1 | MadL1, isolated leader peptide of maddinglicin A (MadA), residues -23 to -1 | 1.21
2 | MadL2, leader peptide of maddinglicin A with the first five residues of the core peptide, residues -23 to +5 | 0.89
3 | MadL2_VSVS, MadL2 with the lysines K-12 and K-10 of the VKVK motif changed to serine (peptide) | 1.12
4 | MadL3, leader peptide of maddinglicin A with the first ten residues of the core peptide, residues -23 to +10 | 0.97

Biological target: His6-MadB (class I lantibiotic dehydratase MadB) (Clostridium sp. Maddingley)
Experiment: ITC; 200 uM leader variant in the syringe titrated into 20 uM MadB dimer in the cell, 20 injections of 2 uL, 25 °C, 50 mM HEPES, 500 mM NaCl, pH 7.5

Row | Substance | Kd [nM] | stoichiometry N (LP per MadB dimer)
5 | MadL1 (isolated leader peptide of maddinglicin A) | 410 | 1
6 | MadL2 (leader peptide of MadA with the first five residues of the core peptide) | 320 | 1
7 | MadL3 (leader peptide of MadA with the first ten residues of the core peptide) | 150 | 1
